Reference: the nanobody polyreactivity screen of Harvey et al. (2022)

Test: yeast display, Sf9 membrane polyspecificity reagent, FACS + sequencing; frameworks hold sequencing errors
Outline: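 Polyreactivity labels are assigned by the sorting gate from which each nanobody was recovered. The gates were low and high (top ~1%), set on anti-HA fluorescence for expression and streptavidin fluorescence for reagent binding. Before sorting, galactose-induced (36–48 hours) yeast display cells were stained for 1 hour at 4 °C with 10% biotinylated, detergent-solubilized Sf9 membrane reagent.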

Sequence | polyreactivity (PSR sort gate)
QVQLVESGGGLVQAGGSLRLSCAASGIIFTSNTMGWYRQAPGKEREFVASINWNGSSTYADSVKGRFTISRDNAKNTVYLQMNSMKPEDTAVYYCNADYNRNSVQFSLYDYWGQGTQVTVSS | low polyreactivity
QVQLVESGGGLVQAGGSLRLSCAASGFIFGWYAMGWYRQAPGKERELVAVIRSGGRTNYADSVKGRFTISRDNAKNTVYLQMNSLKPEDTAVYDCNAVGGRGYGGGFWGQGTQVTVSS | high polyreactivity
QVQLVDSGGGLVQARVNLRLSCRATGIIFYLYVMGWYRQSPGKDRELVAVISYSGDDTYYADSVQVRFTISRDNAKNTVYLQMISLKPEDTAVYYCADDSIGYGVDYWGQGTQVTVSS | low polyreactivity
QVQLVESGGGLVQAGGSLRLSCAASGRNFYYYAMGWYRQAPGKERELVATITGSGGNTYYADSVKGRFTISRDNAKNTVYLQMNSLKPEDTAVYFCNARLARGYWTPGKERPMEYWGQGTQVTVSS | low polyreactivity
QVQLVESGGGLFQAGGSLRISCAASGITFYGNAMGWYRQAPGKERELDATISSGGGTNYADSVKGRFTISRDNAKNTVYLQMNSLKPEDTAVYYCATDLSTVDYNYWGQGTQVTVSS | low polyreactivity
QDQLVESGGGLVQAGGSLRLSCAASGNNFFPYAMGWYRQAPGTEREFVAAINWSGGSTYYADSVKGRFTISRDNAKNTVYLQMNSLKPEDTAVYYCAASSGKWGHGYWGQGTQVTVSS | high polyreactivity
QVQLVESGGGLVQAGGSLRLSCAASGSIFSSNAMGWYRQPPGKERELVAAITSGGSTYYADSVKGRFTISRDNAKNTVYLQMNSLKPEDTAVYYCAASYWGFQRMYYWGQGTQVTVSS | high polyreactivity
QVQLVESGGGLVQAGGSLRLSCAASGIIFATNSMGWYRQAPGKERELVAAITSDSTNYADSVKGRFTISRDNAKNTVYLQMNSLKAEDTAVYYCAADLITDYEESDYWGQGTQVTVSS | low polyreactivity
QVQLVESGGGLVQAGGSLRLSCAASGSTFAVNVMGWYRQAPGKERELVATITYRDGRTYYADSVKGRFTISRDNAKNTVYLQMNSLKPEDTAVYYCAADDEYKQEAEMDSWGQGTLVTVSS | low polyreactivity
QVQLVESGGGLVQAGGTLRLSCADSGSTIRNYAMGWYRQAPGKERELVATISASGGSTYYADSVKGRFTISRDNAKNTVYLQLNSLKPEDTAVYYCNAVVKLWGLVIPPGDYDYWRQGTQVTVSS | high polyreactivity
QVQLVESGGGLFQAGGSLRLSCAPSGFIFPKNPMSWYRHAPGKERELVAAISQSGGSTYYADSVKGRFTISRDNAKNTVYLQMKSLKADDTAVYSCAARYYLPNWVGGGEYNYWGQGTQVTVST | high polyreactivity
QVQLVESGGGLVQAGGSLRLSCAASGLTFERYAMGWNREAPGKERELVAAISGSGGSTYYADSVKGRFTISRDNAKNTVYLQMNSLTPEDTAVYYCAAYPTVWYDYWGQGTQVTVSS | high polyreactivity
QVQLVESGGGLVQAGGSLRLSCAASGRIFTYYPMGWYRQAPGKQRELVAAISWNGDSTYYADSVKGRFTISRDNAKNTVYLQMNSLKPEDTAVYYCIADSFTGYDYWGQGTQVTVSS | low polyreactivity
QGQLLESGGGLVQAGGSLRLSCAASGRTFRSYAMGWYRQAPGKESELVAASSQRGGSSFYADSVKGRFTISRDNAKNSVYLQMNSLKPEDTAVYYCANPVRSGYDYWGQGSQVTVSS | high polyreactivity
QVQLVESGGGLVQAGGSLRLSCAASGSIFRYYAMGWYRRAPGKERELVAAISRRGSSTYYADSVKGRFTISRDNAKNTVYLQMNSLKPEDTAVYYCAAGDFKQYDYWGQGTQVTVSS | high polyreactivity
QVKLVESGGGLVQAGGSLRLTCAASGSTLYAYAMGRYRQAPGKERELVAAISSRAVRTYYADSVKGRFTISRDNAKNTVYLQINSLKPEDTAVYYCAARGQAYSGDRMYYWGQGTQVTVSS | high polyreactivity
QVQLVESGGGLVQAGGSLRLSCAASGSTFLFNGMGWYRQAPGKERELVAAISRSGGRTYYADSVKGRFTISRDNAKNTVYLQMNSLKPEDTAVYYCAAKYRLSGGYGVDYWGQGTQVTVSS | high polyreactivity
QVQLVESGGGLVQAGGSLRLSCAAYGFTFVDFVMGWSIQAPGKERELVAAITTSGTRTSYADSVKGRFTISRDNAKNTVYLQLNSLKPEDTAVYYCNADHKSIYPKYRGRFYYWGQGTQVTVSS | high polyreactivity
QVQLVESGGGLVQAGGSLRLSCAASGFTFYKYVMGWYRQAPGKERELVAAITTSGGSTYYADSVKGRFTISRDNAKNTVYLQMNSLKPEDTAVYYCNALARWWAYYDYGYWGQGTQVTVSS | low polyreactivity
QVQLVESGGGLVQAGGSLRLSCAASGRIFDLNAMGWYRQAPGKETELVAAISYSGGRTFYADSVKGRFTISRDNAKNTVYLQMNSLKPEDTAVYYCNARYGKPAYQYGMDYWGQGTQVTVSS | low polyreactivity
QVQLVESGGGLVQAGGSLRLSCAASGFTFDSYAMGWYRPAPGKERELVAAITSDGSTYYADSVKGRFTISRDNAKNTVYLQMNSLKPEDTAVYYCAARSTARYGYWGQGTQVTVSS | low polyreactivity
QVQLVESGGGLVQAGGSLRLSCAASGLIFYRYAMGRYRQAPRKERELVAAISSSGGSTYYADSVKGRFTISRDNAKNTVYLQMNSLKPEDTAVYYCSARPSTHGYKYGYWGQGTQVTVSS | high polyreactivity

Sequence | polyreactivity (PSR sort gate)
QVQLVESGGGLVQAGGSLRLSCAASGSIFVRYAMGWYRQAPGKERELVASIRSRGDSTYYADSVKGRFTISRDNAKNTVYLQMNSLKPEDTAVYYCAARRYPPRMDYWGQGTQVTVSS | high polyreactivity
QVQLVESGGGLFHAGGRLRLSCAASGYTFRYYAMGWSRQAPGKERELVAGIDSGGGSTYYAASVKGRFTISRDNAKYTVYLQMNSLKPEDTAVYYCAVDTYSWYGEYYYWGQGTQVTVSS | high polyreactivity
QVHLVESGGGLVQAGGSLRLSCAASGRIFGPYAMGWYRQAPGKERELVASISGGGSTNYADSVKGRFTISRDNAKNTVYLQMNSLKPEDTAVYYCAADVYYQYWGWWPYDYWGQGTQVTVSS | low polyreactivity
QVQLVESGGGLVQAGGSLRLTCAASGFTFHNYAMGWYRQAPGKERELVAVIRWRGGSTYYADSVKGRFTISRDNAKNTVYLQMNSLKPEDTAVYYCAKRARGSYYWGYNYWGQGTQVTVSS | high polyreactivity
QVQLVESGGGLVQAGGRLRLSCADSGIIFRAYTIGWYRQATGKERELVAGITSGGSTYYADSVKGRFTISRDNAKNTVYLQMNSLKPEDTAVYYCATYYGRWTPIPYEYWGQGTQVTVSS | high polyreactivity
QVQLVESGGGLVQAGGSLRLSCAASGITFTGYAMGWYRQAPGKERELVAVISETGGSTYADSVKGRFTISRDNAKNTVYLQMNSLKREDTAVYYCAARLWWPYSTAWAKMDYWGQGTQVTVSS | low polyreactivity
QVQLVESAGGLVQAGGSLRLSCAASGRIFSRYAMGWYRQAPGKERELVAAITQSGTSTYYADSVKGRFTISRDNAKNTVYLQMNSLKPEDTAVYYCNAYRQYRYDYWGQGTQVTVSS | low polyreactivity
QVQLVESGGGVVQAGGSLRLSCAASGSHFISNAMGWYRQAPGKERELVAAITSSGGSTYYADSVKGRFTISRDNAKNTVYLQMNSLKPEVTAVYYCAARPGRNYYYWGQGTQVTVSS | high polyreactivity
QVQLVESGGGLVQAGGSLRLSCPASGSTLWGYAMGWYRQAPGKERELVAAITSSGGITYYADSVKGRFTISRDNAKNTVYLQMNSLKPEDTAVYYCAVDYYVVGWTYLYYYRGQGTQVTVSS | low polyreactivity
QVQLVESGVGIVQAGGSLRLSCAASGSTFVSNAMGWYIPAPGKERELVAAISWTGGSTYYADSVKGRFTISRDNAKTTVYLQMNSLKPEDTAVYYCAAQLTDTYYQYDYWGQVTQVTVSS | low polyreactivity
QLQLVESGGGLVQAGGSLRLSCAGSGGTFRVYAMGWYRQATGKERALVAAITGRGGSTYYADSVKGRFTISRDTAKNTVYLQMNSLKAEDTAVYYCAAVSFSDGSPYNYWGLGTQVTVSS | low polyreactivity
QVQLVESGGGLVQAGGSLSLSCAASGSTLRYYDMGWYRQAPGKERELVAAISRGGSTYYADSVKGRFTISRDNAKNTVYLQMNSLKPEDTAVYYCNKEYPSSYEYDYWGQGTQVTVSS | low polyreactivity
QVKLVESGGGLVQAGGSLRLSCAASGSTYHSNAMGWYRRAHGKEMEFVASISIGGSTNYADSVKGRYTISRDNAKNTVYLQMNSLKAEDTAVYYSATEPNPRRPRVDYDYWGQGTQVTVSS | low polyreactivity
QVQLVESWGGLVQAGGSLRLSCAASGFIFSSYGMGWYRQAPGKERELVADISGGGSTNYADSVKGRFTISRDNAKNTVYLQMISLNPEDTAVYYCNAQLIRSAAYDYWGQGTQVTVSS | low polyreactivity
QVQLVESGGRLVQAGGSRRLSCAASGSIFYRNAKRSYRQAPGKERELVAAISGRGGSTNYADSVKGRFTISRDNAKNTVYLQMNSLKPEDTAVYYCNRYGVSNILVRGGYWGQGTQVTVSS | high polyreactivity
QVQLVESGGGLVKAGGSLRLSCAASGSIFGSYAMGWYRQAPGKERSTYYADSVKGRFTISRDNAKNTVYLQMNSLKPEDTAVYYRAADTYGYQGSAGGHWGLGTQVTVSS | low polyreactivity
QVQLVESGGGLVQAGGSLRLSCAASGRIFGRNAMGWYRQAPGKERELVAAISSSGRTYYADSVKGRFTISRDNAKNTVYLQMNSLKPEDTAVYYCAAYGYSWGQGTQVTVSS | high polyreactivity
QVQLVESGGGLVQAGGSLRLSCAASGSIFFWYTMGWYRQAPGKERDLVATITGSGSSTTYADSVKGRFTISRDNAKNTVYLQMNSLKPEDTAVYSCAAADIIDHSFPYDYWGQGTQVTVSS | low polyreactivity
QVQLVESGGGLVQAGGSLRLSCAASGRTFYTYTMGWYRQAPGKERELVAAISKSGTSTYYADSVKGRFTISRDNAKNTVYLQMNSLKPEDTAVYYCAARAYYARFLMGYWGQGTQVTVSS | high polyreactivity
QVQLVESGGGLVQAGGSRRLICAASGRIYYYMGWYRQEPGQERELVAASTSSGVSTYYADSVKGRFTISRDNAKNTVDLQMNSLKPEDTAVYYCAAERVYIFWFTHEIFKYWGQGTQVTVSS | high polyreactivity
QVQLVESGGGLVQAGGSLRLSCAASGSTFDVYAMGWYRQAPGKERELVAVINTSGTRTYYADSVKGRFTISRDNAKNTVYLQMNSLKPEDTAVYYCNAGGHLEMNYWGQGTEVTVSS | low polyreactivity
